# In patent publication US20040181042A1 (MEDICAL AND BIOLOGICAL LABORATORIES, published 2004):
# B1: antibody 4396C (antibody, V domains shown)
# VH: EVQLQQSGPELVKTGASVKISCKASGYSFTGYYMHWVKQSHGKSLEWIGYISCYNGATSYNQKFKGKATFTVDTSSSTAYMQFNSLTSEDSAVYYCARGANWVFDYWGQGTTLTVSS
# VL: QAVVTQESALTTSPGGTVILTCRSSTGAVTTSNYANWVQEKPDHLFTGLIGGTSNRAPGVPVRFSGSLIGDKAALTITGAQTEDDAMYFCALWYSTHYVFGGGTKVTVLG
# Target: T1, aggregated Aβ in plaques of the cerebral cortex of a patient with Alzheimer's disease (human (brain of a patient with …, UniProt P05067 672-713))
# T1 construct: Tissue section fixed in 4% formaldehyde, embedded in paraffin, pre-treated with formic acid; also called neurotic plaques
# T1 sequence (P05067 672-713): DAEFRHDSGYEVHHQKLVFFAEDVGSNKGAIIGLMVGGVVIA
# Assay: immunolabeling of sections of Alzheimer's disease cerebral cortex
# Text: A section of the cerebral cortex of the brain of a patient with Alzheimer's disease was fixed in 4% formaldehyde and embedded in paraffin, then pre-treated with formic acid. […] Arrows indicate vessels in the serial sections.
binder,measurement,value
B1,binding result,no binding
